Laboratory results reported in article PMC9463131, “SLITRK1-mediated noradrenergic projection suppression in the neonatal prefrontal cortex” (Communications Biology, 2022).

T1: SLITRK1-S330A-Fc (human, UniProt Q96PX8 18-616, S330A)
T1 sequence: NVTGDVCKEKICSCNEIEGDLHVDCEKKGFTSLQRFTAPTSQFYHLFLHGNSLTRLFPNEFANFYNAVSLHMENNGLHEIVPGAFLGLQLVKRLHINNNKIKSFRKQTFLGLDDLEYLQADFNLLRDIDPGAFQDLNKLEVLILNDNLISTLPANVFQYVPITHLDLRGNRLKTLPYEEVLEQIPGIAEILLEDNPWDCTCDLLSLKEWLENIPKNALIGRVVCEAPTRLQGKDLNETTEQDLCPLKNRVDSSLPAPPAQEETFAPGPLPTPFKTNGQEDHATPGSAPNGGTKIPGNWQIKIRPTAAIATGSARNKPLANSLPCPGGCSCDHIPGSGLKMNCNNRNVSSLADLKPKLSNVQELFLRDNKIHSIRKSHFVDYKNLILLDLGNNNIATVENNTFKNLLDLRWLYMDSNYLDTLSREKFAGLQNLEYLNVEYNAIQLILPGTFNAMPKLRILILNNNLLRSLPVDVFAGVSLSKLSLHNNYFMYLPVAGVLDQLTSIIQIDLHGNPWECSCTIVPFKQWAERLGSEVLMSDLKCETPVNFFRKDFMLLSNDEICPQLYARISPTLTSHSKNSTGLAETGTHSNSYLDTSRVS

T2: SLITRK1-A444S-Fc (human, UniProt Q96PX8 18-616, A444S)
T2 sequence: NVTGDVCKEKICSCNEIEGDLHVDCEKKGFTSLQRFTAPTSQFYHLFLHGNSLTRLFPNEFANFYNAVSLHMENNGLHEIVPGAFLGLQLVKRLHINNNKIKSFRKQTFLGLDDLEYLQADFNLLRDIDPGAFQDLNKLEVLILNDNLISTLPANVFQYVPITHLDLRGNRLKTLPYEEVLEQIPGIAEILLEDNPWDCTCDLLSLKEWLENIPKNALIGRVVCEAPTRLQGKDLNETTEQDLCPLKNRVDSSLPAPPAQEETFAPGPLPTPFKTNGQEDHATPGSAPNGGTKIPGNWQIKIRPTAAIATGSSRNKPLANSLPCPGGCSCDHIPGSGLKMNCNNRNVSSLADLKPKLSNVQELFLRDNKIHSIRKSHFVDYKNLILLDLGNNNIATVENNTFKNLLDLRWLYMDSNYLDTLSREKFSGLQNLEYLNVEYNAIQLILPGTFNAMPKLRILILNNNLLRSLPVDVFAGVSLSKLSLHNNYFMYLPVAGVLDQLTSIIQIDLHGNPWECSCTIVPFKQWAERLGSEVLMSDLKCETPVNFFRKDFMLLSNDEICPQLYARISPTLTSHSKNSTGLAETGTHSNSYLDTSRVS

T3: SLITRK1-S330A-Fc (human, UniProt Q96PX8 18-616, S330A)
T3 construct: signal peptide in the construct; human SLITRK1 extracellular domain, amino acid number 1-616 in NP_443142, with the patient-derived variant S330A; S330A is a variant found in patients and controls (global MAF 0.002); made by site-directed mutagenesis; also called SLITRK1 ECD-Fc S330A
T3 sequence (looked up): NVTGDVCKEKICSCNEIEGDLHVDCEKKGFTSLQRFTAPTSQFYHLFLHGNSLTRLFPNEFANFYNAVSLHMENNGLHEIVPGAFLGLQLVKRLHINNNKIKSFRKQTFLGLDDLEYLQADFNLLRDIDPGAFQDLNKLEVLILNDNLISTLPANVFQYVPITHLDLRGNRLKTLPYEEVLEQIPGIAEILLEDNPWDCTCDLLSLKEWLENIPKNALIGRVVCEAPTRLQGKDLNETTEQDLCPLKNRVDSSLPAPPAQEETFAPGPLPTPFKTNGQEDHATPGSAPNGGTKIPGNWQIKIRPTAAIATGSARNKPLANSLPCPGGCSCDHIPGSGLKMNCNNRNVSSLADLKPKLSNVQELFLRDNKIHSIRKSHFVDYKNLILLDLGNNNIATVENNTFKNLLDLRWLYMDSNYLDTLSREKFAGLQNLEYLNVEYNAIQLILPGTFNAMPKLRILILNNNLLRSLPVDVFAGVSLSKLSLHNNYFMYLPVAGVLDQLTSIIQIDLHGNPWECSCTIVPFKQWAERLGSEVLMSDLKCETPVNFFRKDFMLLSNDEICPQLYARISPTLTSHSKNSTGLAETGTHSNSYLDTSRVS

T4: SLITRK1-A444S-Fc (human, UniProt Q96PX8 18-616, A444S)
T4 construct: signal peptide in the construct; human SLITRK1 extracellular domain, amino acid number 1-616 in NP_443142, with the patient-derived variant A444S; A444S was found in 2 of 364 patients with bipolar disorder; made by site-directed mutagenesis; also called SLITRK1 ECD-Fc A444S
T4 sequence (looked up): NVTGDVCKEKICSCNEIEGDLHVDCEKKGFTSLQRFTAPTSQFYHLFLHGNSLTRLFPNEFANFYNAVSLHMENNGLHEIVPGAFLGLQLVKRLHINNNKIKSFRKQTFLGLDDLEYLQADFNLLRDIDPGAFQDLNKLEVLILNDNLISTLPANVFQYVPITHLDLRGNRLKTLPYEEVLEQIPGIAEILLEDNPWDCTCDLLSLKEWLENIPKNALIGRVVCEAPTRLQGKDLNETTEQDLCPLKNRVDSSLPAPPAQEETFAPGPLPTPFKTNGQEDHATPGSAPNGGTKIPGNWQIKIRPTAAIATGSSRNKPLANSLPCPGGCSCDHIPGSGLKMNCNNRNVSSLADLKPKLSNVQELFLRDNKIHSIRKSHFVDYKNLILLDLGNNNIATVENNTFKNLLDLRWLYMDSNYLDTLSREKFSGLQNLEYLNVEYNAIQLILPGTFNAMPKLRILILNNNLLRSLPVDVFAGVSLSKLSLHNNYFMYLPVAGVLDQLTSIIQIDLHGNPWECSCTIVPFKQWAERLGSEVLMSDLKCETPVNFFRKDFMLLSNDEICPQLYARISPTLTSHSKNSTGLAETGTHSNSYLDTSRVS

T5: human PTPRD ECD-His6 (ACROBiosystems) (human, UniProt P23468 21-1265)
T5 construct: human receptor-type protein tyrosine phosphatase delta (PTPRD), extracellular domain; No catalogue number printed; also called PTPRδ; source: bought: ACROBiosystems
T5 sequence (looked up): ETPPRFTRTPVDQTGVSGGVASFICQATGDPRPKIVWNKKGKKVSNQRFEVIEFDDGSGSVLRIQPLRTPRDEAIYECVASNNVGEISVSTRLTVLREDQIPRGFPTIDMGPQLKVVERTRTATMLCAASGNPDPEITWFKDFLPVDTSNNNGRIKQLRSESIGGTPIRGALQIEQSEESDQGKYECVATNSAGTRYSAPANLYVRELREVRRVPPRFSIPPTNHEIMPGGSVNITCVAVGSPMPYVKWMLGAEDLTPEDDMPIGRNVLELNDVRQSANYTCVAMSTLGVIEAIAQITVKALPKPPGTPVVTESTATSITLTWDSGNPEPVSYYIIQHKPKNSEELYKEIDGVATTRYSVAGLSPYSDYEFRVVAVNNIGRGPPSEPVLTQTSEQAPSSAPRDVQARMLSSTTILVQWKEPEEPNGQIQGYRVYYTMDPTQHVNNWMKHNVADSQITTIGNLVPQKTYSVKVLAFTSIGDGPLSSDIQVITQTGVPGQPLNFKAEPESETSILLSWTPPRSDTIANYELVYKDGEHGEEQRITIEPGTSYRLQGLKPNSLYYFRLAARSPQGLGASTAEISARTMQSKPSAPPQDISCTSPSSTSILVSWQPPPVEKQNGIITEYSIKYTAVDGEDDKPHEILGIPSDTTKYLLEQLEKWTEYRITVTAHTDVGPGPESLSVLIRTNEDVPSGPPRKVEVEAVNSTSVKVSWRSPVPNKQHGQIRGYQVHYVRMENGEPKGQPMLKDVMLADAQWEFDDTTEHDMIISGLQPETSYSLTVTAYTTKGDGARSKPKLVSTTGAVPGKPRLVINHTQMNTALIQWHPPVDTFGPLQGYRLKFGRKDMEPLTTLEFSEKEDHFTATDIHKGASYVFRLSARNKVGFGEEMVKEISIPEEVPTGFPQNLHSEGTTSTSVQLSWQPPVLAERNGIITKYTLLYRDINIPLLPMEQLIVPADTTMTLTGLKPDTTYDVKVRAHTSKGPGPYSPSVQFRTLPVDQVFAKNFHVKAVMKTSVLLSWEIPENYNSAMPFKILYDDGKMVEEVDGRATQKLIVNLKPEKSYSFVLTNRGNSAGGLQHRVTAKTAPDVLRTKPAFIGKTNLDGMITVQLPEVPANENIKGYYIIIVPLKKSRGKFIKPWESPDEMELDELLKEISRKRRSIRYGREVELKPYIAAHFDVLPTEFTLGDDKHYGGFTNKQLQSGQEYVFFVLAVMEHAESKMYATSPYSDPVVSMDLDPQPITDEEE

B1: SLITRK1 ECD-immunoglobulin Fc domain-fusion protein (SLITRK1-WT-Fc) (Fc fusion, human, UniProt Q96PX8 18-616, looked up)
chain: NVTGDVCKEKICSCNEIEGDLHVDCEKKGFTSLQRFTAPTSQFYHLFLHGNSLTRLFPNEFANFYNAVSLHMENNGLHEIVPGAFLGLQLVKRLHINNNKIKSFRKQTFLGLDDLEYLQADFNLLRDIDPGAFQDLNKLEVLILNDNLISTLPANVFQYVPITHLDLRGNRLKTLPYEEVLEQIPGIAEILLEDNPWDCTCDLLSLKEWLENIPKNALIGRVVCEAPTRLQGKDLNETTEQDLCPLKNRVDSSLPAPPAQEETFAPGPLPTPFKTNGQEDHATPGSAPNGGTKIPGNWQIKIRPTAAIATGSSRNKPLANSLPCPGGCSCDHIPGSGLKMNCNNRNVSSLADLKPKLSNVQELFLRDNKIHSIRKSHFVDYKNLILLDLGNNNIATVENNTFKNLLDLRWLYMDSNYLDTLSREKFAGLQNLEYLNVEYNAIQLILPGTFNAMPKLRILILNNNLLRSLPVDVFAGVSLSKLSLHNNYFMYLPVAGVLDQLTSIIQIDLHGNPWECSCTIVPFKQWAERLGSEVLMSDLKCETPVNFFRKDFMLLSNDEICPQLYARISPTLTSHSKNSTGLAETGTHSNSYLDTSRVS
notes: signal peptide in the construct; human SLITRK1 extracellular domain, amino acid number 1-616 in NP_443142; also called SLITRK1 ECD-Fc; SLITRK1 ECD-Fc fusion protein

Assays:
SLITRK1-S330A-Fc [1] = biological target: T1, SLITRK1-S330A-Fc; assay: BLI
SLITRK1-A444S-Fc [2] = biological target: T2, SLITRK1-A444S-Fc; assay: BLI
[3] = biological target: B1; assay: quartz crystal microbalance; AffinixQ, 27 MHz; about 200 femtomoles SLITRK1 ECD-Fc (WT, S330A or A444S) immobilised through anti-human IgG Fc on the gold resonator; ECD-His6 proteins added at several concentrations; 50 mM Tris-HCl pH 7.6, 15 mM NaCl, 140 mM KCl, 0.5 mM MgCl2, 2 mM CaCl2; 25 ± 1 °C; KD = koff/kon; conditions: both partners purified
SLITRK1-S330A-Fc [4] = biological target: T3, SLITRK1-S330A-Fc; assay: as above; conditions: both partners purified
SLITRK1-A444S-Fc [5] = biological target: T4, SLITRK1-A444S-Fc; assay: as above; conditions: both partners purified
[6] = biological target: T6, L1CAM ECD-His6 (777-NC-100, R&D Systems) (UniProt P32004 20-1120); assay: as above; conditions: both partners purified
T6 construct: L1CAM extracellular domain; source: bought: R&D Systems (777-NC-100)

[7] = biological target: T5, human PTPRD ECD-His6 (ACROBiosystems); assay: as above; conditions: both partners purified

T6 sequence (P32004 20-1120): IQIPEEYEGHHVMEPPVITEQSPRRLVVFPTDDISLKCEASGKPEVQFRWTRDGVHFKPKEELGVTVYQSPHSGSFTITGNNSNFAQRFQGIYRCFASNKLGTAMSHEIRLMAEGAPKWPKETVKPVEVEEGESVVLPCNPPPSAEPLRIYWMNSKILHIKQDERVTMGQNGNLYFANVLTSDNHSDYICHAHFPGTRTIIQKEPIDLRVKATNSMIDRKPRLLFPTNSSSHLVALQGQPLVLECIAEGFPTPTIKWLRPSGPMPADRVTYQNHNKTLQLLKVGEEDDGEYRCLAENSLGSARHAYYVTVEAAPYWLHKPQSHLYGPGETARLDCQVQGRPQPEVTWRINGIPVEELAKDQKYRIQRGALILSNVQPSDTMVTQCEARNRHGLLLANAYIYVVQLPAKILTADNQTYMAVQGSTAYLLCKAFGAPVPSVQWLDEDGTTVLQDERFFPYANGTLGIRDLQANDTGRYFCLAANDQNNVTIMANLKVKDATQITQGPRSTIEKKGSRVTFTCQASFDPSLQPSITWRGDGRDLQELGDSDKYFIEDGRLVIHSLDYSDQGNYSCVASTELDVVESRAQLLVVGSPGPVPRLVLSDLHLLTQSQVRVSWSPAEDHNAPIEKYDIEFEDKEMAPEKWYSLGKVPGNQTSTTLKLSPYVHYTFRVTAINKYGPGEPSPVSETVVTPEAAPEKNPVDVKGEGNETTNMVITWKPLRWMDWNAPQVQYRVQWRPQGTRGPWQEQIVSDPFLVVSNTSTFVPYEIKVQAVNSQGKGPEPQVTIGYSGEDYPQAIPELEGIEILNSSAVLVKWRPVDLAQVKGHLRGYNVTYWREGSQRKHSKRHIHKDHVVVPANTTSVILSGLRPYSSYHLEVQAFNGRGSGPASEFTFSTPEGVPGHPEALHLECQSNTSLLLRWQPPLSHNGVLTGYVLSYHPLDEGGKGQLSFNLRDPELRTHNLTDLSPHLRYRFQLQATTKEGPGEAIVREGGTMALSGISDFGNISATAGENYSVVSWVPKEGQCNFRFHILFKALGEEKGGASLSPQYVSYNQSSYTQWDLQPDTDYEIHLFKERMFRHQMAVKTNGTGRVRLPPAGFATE

koff (SLITRK1-S330A-Fc [1]) [s⁻¹] | koff (SLITRK1-A444S-Fc [2]) [s⁻¹] | Kd [3] [nM] | Kd (SLITRK1-S330A-Fc [4]) [nM] | Kd (SLITRK1-A444S-Fc [5]) [nM] | Kd [6] [nM] | Kd [7] [nM] | Binder
0.00665 | 0.00577 | 16.6 | 59.3 | 14.2 | – | – | human Neurofascin ECD-His6 (8208-NF-050, R&D Systems) (domain or fragment) IEIPMDLTQPPTITKQSAKDHIVDPRDNILIECEAKGNPAPSFHWTRNSRFFNIAKDPRVSMRRRSGTLVIDFRSGGRPEEYEGEYQCFARNKFGTALSNRIRLQVSKSPLWPKENLDPVVVQEGAPLTLQCNPPPGLPSPVIFWMSSSMEPITQDKRVSQGHNGDLYFSNVMLQDMQTDYSCNARFHFTHTIQQKNPFTLKVLTNHPYNDSSLRNHPDMYSARGVAERTPSFMYPQGTASSQMVLRGMDLLLECIASGVPTPDIAWYKKGGDLPSDKAKFENFNKALRITNVSEEDSGEYFCLASNKMGSIRHTISVRVKAAPYWLDEPKNLILAPGEDGRLVCRANGNPKPTVQWMVNGEPLQSAPPNPNREVAGDTIIFRDTQISSRAVYQCNTSNEHGYLLANAFVSVLDVPPRMLSPRNQLIRVILYNRTRLDCPFFGSPIPTLRWFKNGQGSNLDGGNYHVYENGSLEIKMIRKEDQGIYTCVATNILGKAENQVRLEVKDPTRIYRMPEDQVARRGTTVQLECRVKHDPSLKLTVSWLKDDEPLYIGNRMKKEDDSLTIFGVAERDQGSYTCVASTELDQDLAKAYLTVLGRPDRPRDLELTDLAERSVRLTWIPGDANNSPITDYVVQFEEDQFQPGVWHDHSKYPGSVNSAVLRLSPYVNYQFRVIAINEVGSSHPSLPSERYRTSGAPPESNPGDVKGEGTRKNNMEITWTPMNATSAFGPNLRYIVKWRRRETREAWNNVTVWGSRYVVGQTPVYVPYEIRVQAENDFGKGPEPESVIGYSGEDYPRAAPTEVKVRVMNSTAISLQWNRVYSDTVQGQLREYRAYYWRESSLLKNLWVSQKRQQASFPGDRLRGVVSRLFPYSNYKLEMVVVNGRGDGPRSETKEFTTPEGVPSAPRRFRVRQPNLETINLEWDHPEHPNGIMIGYTLKYVAFNGTKVGKQIVENFSPNQTKFTVQRTDPVSRYRFTLSARTQVGSGEAVTEESPAPPNEAYTNNQADIATQGW
– | – | – | – | – | 5.47 | 152 | B1
